Experimental data as given in the supplement of paper PMC10567573.

B1: KCNG1 (parent)
chain: AVNLSVSTLPSLREEEEQVRAHAP
B2: KCTD10 (parent)
chain: SSKEEQKLIATSNKPAVKLLYNRS

Variants of: B1
Assay: protein stability index of a GFP-peptide fusion (GPS, HEK-293T) (PSI 1-6); higher = more stable
Settings: c terminus: a fixed tail appended
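Note: lentivirally expressed fusions sorted by FACS into six bins by GFP to DsRed ratio, PSI derived from sequencing read proportions per bin multiplied by bin number.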

Variant | protein stability index
A21T | 4.54
A21Y | 3.93
A21W | 3.35
A21V | 4.36
A21S | 4.96
A21P | 4.97
A21Q | 5.25
A21R | 4.99
H22F | 4.49
H22W | 3.02
H22D | 5.01
H22Q | 4.57
H22I | 4.45
H22C | 4.92
H22G | 5.29
H22M | 5.28
H22S | 5.49
H22N | 5.26
H22A | 5.11
H22T | 4.91
H22E | 5.62
H22L | 4.83

Variant | protein stability index
H22P | 4.62
H22K | 5.49
H22R | 5.22
H22V | 4.76
H22Y | 4.87
A23F | 4.1
A23D | 5.3
A23Y | 4.3
A23H | 4.87
A23R | 5.04
A23Q | 5.27
A23N | 5.26
A23L | 5.02
A23C | 4.86
A23T | 4.87
A23G | 5.71
A23S | 5.2
A23M | 4.83
A23P | 5.29
A23E | 4.82
A23I | 4.82
A23V | 5.07

Variant | protein stability index
A23W | 4.32
A23K | 5.1
P24F | 4.42
P24I | 4.58
P24V | 5.11
P24A | 5.57
P24E | 5.61
P24N | 5.34
P24C | 5.04
P24M | 4.55
P24D | 5.57
P24R | 5.08
P24Y | 4.41
P24H | 5.41
P24K | 4.92
P24S | 4.84
P24G | 5.37
P24W | 4
P24T | 5.36
P24L | 4.94
P24Q | 5.23

Variants of: B2
Assay: as above
Settings: c terminus: a fixed tail appended

Variant | protein stability index
L8T | 4.47
L8D | 4.88
L8W | 3.79
L8K | 4.75
L8V | 4.66
L8S | 4.62
L8R | 4.34
L8C | 4.42
L8E | 4.96
L8F | 3.51
L8H | 4.46
L8Q | 4.6
L8G | 4.51
L8A | 4.88
L8N | 4.31
L8Y | 4.02
L8M | 4.43
L8P | 4.88
L8I | 4.32
K7N | 4.32
K7A | 4.1
K7C | 3.86
K7W | 2.87
K7F | 3.02
K7Y | 3.29

Variant | protein stability index
K7Q | 4.25
K7T | 3.87
K7M | 3.3
K7S | 3.55
K7E | 4.4
K7P | 4.39
K7D | 4.49
K7I | 3.28
K7H | 3.85
K7V | 3.68
K7L | 3.21
K7G | 4.45
K7R | 3.92
I9W | 3.93
I9D | 4.74
I9R | 4.33
I9E | 4.72
I9A | 3.97
I9Y | 4.41
I9H | 3.81
I9P | 4.69
I9K | 4.39
I9Q | 4.31
I9M | 3.96
I9T | 4.18

Variant | protein stability index
I9S | 4.34
I9C | 3.91
I9F | 4.08
I9V | 4.34
I9L | 3.98
I9G | 4.54
I9N | 4.36
S12K | 4.27
S12A | 3.89
S12P | 4.29
S12L | 3.72
S12E | 4.42
S12M | 3.42
S12R | 4.02
S12C | 3.81
S12G | 3.89
S12I | 3.92
S12V | 3.88
S12H | 3.46
S12W | 2.79
S12D | 4.52
S12N | 4.02
S12T | 4.34
S12F | 3.34
S12Q | 4.26

Variant | protein stability index
S12Y | 3.38
K3F | 3.83
K3G | 3.32
K3A | 4.67
K3W | 3.93
K3V | 3.96
K3R | 3.97
K3Y | 3.26
K3L | 4.07
K3M | 4.08
K3C | 3.86
K3T | 4.18
K3D | 4.5
K3N | 4.04
K3H | 4.23
K3S | 3.58
K3I | 3.91
K3E | 4.16
K3Q | 4.25
K3P | 4.06
P15C | 2.96
P15A | 3.54
P15D | 4.2
S2Q | 4.25
S2M | 4.13

Variant | protein stability index
S2H | 3.99
S2I | 3.88
S2K | 3.97
S2A | 4.54
S2P | 4.45
S2F | 3.57
S2T | 3.86
S2L | 3.79
S2C | 2.83
S2D | 4.55
S2R | 4.07
S2N | 4.16
S2E | 4.43
S2V | 3.5
S2W | 3.26
S2G | 4.25
S2Y | 3.56
Q6N | 3.96
Q6W | 2.79
Q6E | 4.52
Q6H | 4.08
Q6P | 4
Q6K | 3.1
Q6R | 3.93
Q6A | 4.23

Variant | protein stability index
Q6I | 3.33
Q6Y | 4.01
Q6M | 3.56
Q6F | 3.15
Q6V | 3.6
Q6C | 4.15
Q6G | 3.8
Q6S | 3.86
Q6T | 4.44
Q6L | 3.59
Q6D | 4.5
E4A | 3.3
E4P | 3.64
E4K | 3.69
E4C | 3.55
E4R | 3.66
E4S | 3.99
E4M | 2.82
E4I | 3.06
E4D | 4.01
E4N | 3.87
E4W | 3.24
E4T | 3.26
E4Q | 4.06
E4H | 3.09

Variant | protein stability index
E4L | 3.52
E4G | 3.46
E4Y | 2.83
E4V | 3.5
E4F | 3.6
N13G | 4.28
N13H | 3.9
N13A | 3.58
N13D | 4.73
N13V | 3.75
N13W | 2.67
N13Y | 3.38
N13E | 4.54
N13C | 2.31
N13M | 3.69
N13I | 3.21
N13T | 4
N13K | 3.96
N13F | 3.16
N13P | 4.12
N13S | 3.79
N13L | 3.3
N13R | 3.33
N13Q | 2.95
K14Y | 3.46

Variant | protein stability index
K14N | 3.96
K14L | 3.8
K14Q | 4.28
K14S | 4.24
K14T | 4.04
K14R | 4.2
K14G | 4.03
K14A | 3.76
K14V | 3.96
K14F | 3.39
K14W | 2.63
K14D | 4.57
K14C | 3.73
K14M | 3.76
K14H | 3.59
K14I | 3.66
K14P | 4.32
K14E | 4.39
E5T | 3.82
E5A | 3.38
E5Q | 3.83
E5W | 1.79
E5K | 3.35
E5P | 3.56
E5F | 2.26

Variant | protein stability index
E5S | 3.87
E5I | 2.97
E5D | 4.13
E5M | 2.97
E5N | 3.7
E5G | 1.71
E5H | 3.78
E5Y | 2.97
E5C | 3.34
E5V | 2.8
E5L | 2.83
E5R | 3.59
A10Y | 3.65
A10W | 3.51
A10P | 3.78
A10S | 4.01
A10R | 3.88
A10M | 3.51
A10H | 4.2
A10L | 3.73
A10N | 4.41
A10F | 3.44
A10V | 3.45
A10G | 3.86
A10C | 3.88

Variant | protein stability index
A10T | 4.39
A10I | 2.74
A10E | 4.51
A10K | 4.15
A10Q | 4.27
A10D | 3.78
T11F | 3.63
T11K | 4.19
T11R | 3.37
T11S | 4.26
T11A | 4.42
T11W | 3.35
T11L | 3.7
T11H | 3.94
T11I | 3.73
T11C | 3.61
T11P | 3.97
T11E | 4.58
T11Q | 4.15
T11G | 4.16
T11M | 3.6
T11Y | 3.6
T11N | 3.92
T11V | 3.75
T11D | 4.68

Variant | protein stability index
S1A | 3.87
S1N | 4.32
S1M | 4.26
S1Q | 4.22
S1G | 3.96
S1W | 3.08
S1L | 3.69
S1K | 4.12
S1Y | 3.18
S1R | 3.8
S1V | 3.84
S1P | 3.98
S1E | 4.49
S1H | 4.21
S1D | 3.9
S1I | 3.56
S1T | 4.1
S1F | 3.6
S1C | 3.82
